{"source": "patent US20250186614A1", "about": "“COMPACT DRUG RESPONSIVE DOMAINS FOR REGULATION OF FUNCTION/ABUNDANCE AND DELIVERY OF POLYPEPTIDE PAYLOADS” (OBSIDIAN THERAPEUTICS, INC., priority 2022, published 2025)", "molecules": {"B1": {"name": "FKBP-225 (protein)", "chain": "HCRIKSRKGDVLHMHYTGKLEDGTEFDSSLPRNQPFVFSLGTGERIKGWDQGLLGMCEGEKRKLVIPSELGYGERGWPPKIPGGATLVFEVELLKIER", "modifications": "Description of sequence: Construct Name: FKBP-225; Mutation(s): Q72R Q84E A117W V85R DRD P43R"}, "B2": {"name": "FKBP-226: FKBP13 DRD-AcGFP construct of Table 10 (protein)", "chain": "B1 chain with M14A", "modifications": "Description of sequence: Construct Name: FKBP-226; Mutation(s): Q72R Q84E A117W V85R DRD P43R M54A"}, "B3": {"name": "FKBP-227 (protein)", "chain": "B1 chain with R3P, R45V, E97R", "modifications": "Description of sequence: Construct Name: FKBP-227; Mutation(s): Q72R Q84E A117W DRD E137R"}, "B4": {"name": "FKBP-164 (protein)", "chain": "B1 chain with R3P, M14A, P78V", "modifications": "Description of sequence: Construct Name: FKBP-164; Mutation(s): Q72R Q84E A117W DRD M54A P118V V85R"}, "B5": {"name": "FKBP-229: FKBP13 DRD-AcGFP construct of Table 10 (protein)", "chain": "B1 chain with R3P, M14A, E97R", "modifications": "Description of sequence: Construct Name: FKBP-229; Mutation(s): Q72R Q84E A117W V85R DRD E137R M54A"}, "B6": {"name": "FKBP-230: FKBP13 DRD-AcGFP construct of Table 10 (protein)", "chain": "B1 chain with R3P, G23M, R45V", "modifications": "Description of sequence: Construct Name: FKBP-230; Mutation(s): Q72R Q84E A117W DRD G63M"}, "B7": {"name": "FKBP-231 (protein)", "chain": "B1 chain with R3P, G23M", "modifications": "Description of sequence: Construct Name: FKBP-231; Mutation(s): Q72R Q84E A117W V85R DRD G63M"}, "B8": {"name": "FKBP-232 (protein)", "chain": "B1 chain with R3P, M14A, G23M", "modifications": "Description of sequence: Construct Name: FKBP-232; Mutation(s): Q72R Q84E A117W V85R DRD G63M M54A"}, "B9": {"name": "FKBP-233: FKBP13 DRD-AcGFP construct of Table 10 (protein)", "chain": "B1 chain with R3P, R45V, D50T", "modifications": "Description of sequence: Construct Name: FKBP-233; Mutation(s): Q72R Q84E A117W DRD D90T"}, "B10": {"name": "FKBP-234 (protein)", "chain": "B1 chain with R3P, D50T", "modifications": "Description of sequence: Construct Name: FKBP-234; Mutation(s): Q72R Q84E A117W V85R DRD D90T"}}, "note": "Residue numbers refer to the chain shown, from its start. Numbers in names are those of the source."}
{"experiment": "Example 4: dose response of FKBP constructs 160-255, Ec50, Ec90 and fold change (raw and normalized to mCherry)", "type": "cell-based", "conditions": "FKBP constructs 160-255; not normalized; read-out: EC90", "procedure": "(§1) Additional experiments were performed for constructs FKBP-160-292.", "units": {"EC90": "nM"}}
{"molecule": "B1", "EC90": 25.4}
{"molecule": "B2", "EC90": 44.6}
{"molecule": "B3", "EC90": 293}
{"molecule": "B4", "EC90": 580}
{"molecule": "B5", "EC90": 484}
{"molecule": "B6", "EC90": 997}
{"molecule": "B7", "EC90": 396}
{"molecule": "B8", "EC90": 938}
{"molecule": "B9", "EC90": 272}
{"molecule": "B10", "EC90": 8760}
{"experiment": "Example 4: dose response of FKBP constructs 160-255, Ec50, Ec90 and fold change (raw and normalized to mCherry)", "type": "cell-based", "conditions": "fold change during initial analysis", "procedure": "as §1"}
{"molecule": "B1", "FC (fold change)": 20.6}
{"molecule": "B2", "FC (fold change)": 31.5}
{"molecule": "B3", "FC (fold change)": 29.0}
{"molecule": "B4", "FC (fold change)": 42.7}
{"molecule": "B5", "FC (fold change)": 54.0}
{"molecule": "B6", "FC (fold change)": 49.0}
{"molecule": "B7", "FC (fold change)": 39.9}
{"molecule": "B8", "FC (fold change)": 35.0}
{"molecule": "B9", "FC (fold change)": 47.2}
{"molecule": "B10", "FC (fold change)": 23.5}
{"experiment": "Example 4: dose response of FKBP constructs 160-255, Ec50, Ec90 and fold change (raw and normalized to mCherry)", "type": "cell-based", "conditions": "normalized to mCherry; read-out: EC90 (Norm)", "procedure": "as §1", "units": {"EC90": "nM"}}
{"molecule": "B1", "EC90": 26}
{"molecule": "B2", "EC90": 47}
{"molecule": "B3", "EC90": 278}
{"molecule": "B4", "EC90": 621}
{"molecule": "B5", "EC90": 455}
{"molecule": "B6", "EC90": 890}
{"molecule": "B7", "EC90": 399}
{"molecule": "B8", "EC90": 1090}
{"molecule": "B9", "EC90": 335}
{"molecule": "B10", "EC90": 12100}
